Consider one molecule from patent US20230312751A1, “Anti-Fibrotic Combination” (Engitix Limited, priority 2020, published 2023).

Common to all, as to type: cell-based
In assay [1] the test system is Primary human HSCs. The assay is described as follows: Secretion of pro-fibrogenic factors by stimulated HSCs, Luminex (Example 9). The following applies: 48 h. As to the method: Primary human HSCs were grown to confluence and maintained in growth media for 10 days. Cells were maintained in serum-free media for 48 h and subsequently stimulated with either human Chymase (30, 100 or 300 ng/mL), human tryptase alone (300, 1000, 3000 ng/mL) or in combination with chymase for a further 48 h. The TGFβ1 (3 ng/mL) served as a positive control and serum-free conditions as a negative control. Media was removed after 48 h and levels of secreted IGFBP-3, Tenascin C, Collagen IV and Endostatin levels were determined by Luminex.

For assay [2], the system named is Primary human HSCs. The assay is described as follows: Active/latent TGFβ in HSC conditioned media, TGFb-responsive luciferase reporter cells (Example 10). To be noted: conditioned media heated at 80° C. for 10 minutes; chymase 100 (C2) and 30 ng/mL (C3). As to the method: Primary human HSCs were grown to confluence and maintained in growth media for 10 days. Cells were maintained in serum-free media for 48 h and subsequently stimulated with either human Chymase (30, 100 or 300 ng/mL), human tryptase (300, 1000, 3000 ng/mL) or both in combination as indicated for a further 48 h. The TGFb1 (3 ng/mL) served at positive control and serum-free conditions as a negative control.
Conditioned media was collected and either transferred directly to cells harbouring a TGFb-responsive promoter linked to the firefly luciferase reporter gene for 24 h to determine the levels of active TGFb present in media, or conditioned media was heated at 80° C. for 10 minutes in order to activate in the conditioned media the latent TGFb into active TGFb present. The addition of exogenous TGFb1 (1 ng/mL served as a positive control. Cells were lysed after 24 h and levels of latent or active TGFb determined by measuring luciferase activity. The results are shown in FIG. 11.
In general terms: Reporter assays use an easily measured gene product as a stand-in for the process of interest.

The subject of assay [3] is Primary human hepatic stellate cells (HSCs). Put plainly: Deposited collagen type I in stimulated HSCs, immunofluorescence (Example 8). As to the method: Primary human hepatic stellate cells (HSCs) were grown for 2 days. Cells were maintained in serum-free media for 48 h and subsequently stimulated with either human chymase (C) at 100 ng/mL, human tryptase (T) alone at 1000 ng/mL) or in combination (C 100 ng T 1000 ng) as indicated for a further 48 h. TGFβ1 served as a positive control, and serum-free conditions (SFM) as a negative control.
Following stimulation, media was removed and the cells washed in PBS and fixed with Formalin 4% for 15 min. Cells and extracellular proteins were stained with Rb ANTI-Col I (Novus Biologicals, NB600-408, 1:500) and images were acquired at 20× using a confocal microscope.

The test system is the same in assay [4]. Put plainly: Collagen type I production by stimulated HSCs, western blot (Example 7). To be noted: 48 h stimulation, chymase 30, 100 or 300 ng/mL, tryptase 300, 1000, 3000 ng/mL, alone or in combination. As to the method: Primary human hepatic stellate cells (HSCs) were grown to confluence and maintained in growth media for 10 days. Cells were maintained in serum-free media for 48 h and subsequently stimulated with either human chymase alone (30, 100 or 300 ng/mL), human tryptase alone (300, 1000, 3000 ng/mL) or human chymase and tryptase in combination as indicated for a further 48 h. The PAR2 agonist at 10 or 100 ng/mL and TGFb1 (3 ng/mL) served as a positive control, whilst serum-free conditions provided a negative control.
Media was removed and the cells and extracellular proteins deposited lysed in RIPA buffer.
A general note: A western blot detects proteins with antibodies after separation by electrophoresis.

[5] abbreviates: chymase 100 ng/mL, tryptase 1000 ng/mL, 48 h.

Entries after “also recorded” stand apart in the source; their conditions may differ.

B1: chymase: human chymase, mast cell serine protease, added exogenously to stimulate hepatic stellate cells (protein, UniProt P23946 22-247, looked up)
Chymase: IIGGTECKPHSRPYMAYLEIVTSNGPSKFCGGFLIRRNFVLTAAHCAGRSITVTLGAHNITEEEDTWQKLEVIKQFRHPKYNTSTLHHDIMLLKLKEKASLTLAVGTLPFPSQFNFVPPGRMCRVAGWGRTGVLKPGSDTLQEVKLRLMDPQACSHFRDFDHNLQLCVGNPRKTKSAFKGDSGGPLLCAGVAQGIVSYGRSDAKPPAVFTRISHYRPWINQILQAN
In the case of B1, the “secreted IGFBP3” value in the assay on Primary human HSCs [1] (regardless of concentration) is on record as “marked increase”. Also, in the assay with Primary human HSCs [1] (chymase 30, 100 or 300 ng/mL), the “secreted Tenascin C” value was “concentration-dependent increase” and the “secreted collagen IV” value is given as “concentration-dependent increase”. In addition, the secreted endostatin result in the assay with Primary human HSCs [1] (chymase at all concentrations) is on record as “significant increase”. Moreover, the “secreted latent TGFβ in conditioned media” value with Primary human HSCs [2] is listed as “increases”. In assay [3] (C100 ng/mL, T1000 ng/mL, C100/T1000 ng/mL, relative to serum-free medium and TGF-beta controls), the “cell number (nuclear stain Hoechst)” value was “no effect”. For the same molecule, in assay [3] (setting [5]), the “deposited collagen type I (collagen area / immunofluorescence intensity normalised to cell number) relative to SFM” value is “did not induce a significant change” and the “distribution of deposited collagen type I compared to serum-free alone (SFM)” value is reported as “change in distribution; also recorded: altered collagen distribution patterns”. In addition, in assay [4], the “collagen type I protein compared to basal levels in untreated cells” value was “marked increase”.
